The target in one assay is T1, Human IgG, Fc fragment (human).
T1 construct: domain: Fc; the ELISA plates were coated with 'antibody antigens', so whole IgG may have stood there; also called human IgG-Fc domain; IgG Fc domain species: human
Kind of assay: method not given.

For assay [1], the target named is T2, Human IgG1 (human, UniProt P01857-1 1-330 = IgG part).
T2 construct: purified IgG of this subclass; also called HuIgG1
Kind of assay: SPR, IgG-Fc-16 immobilised, IgG 50 µg/ml. Here is the method: (§1) Broad binding reactivity of VHH fragment IgG-Fc-16 was determined using surface plasmon resonance analysis (SPR) on a BiaCore 3000. For this purpose, purified VHH fragment IgG-Fc-16 was immobilised onto the surface of a CM5 sensor chip and subsequently incubated with purified IgG antibodies (50 μg/ml) from different species in HBS-EP buffer. Binding was allowed for 1 minute at 5 μl/min followed by a dissociation step of 2.5 minutes at 5 μl/min. Binding signals (Resonance Units) were compared to background signals measured with HBS-EP buffer only. For comparison, the relative reactivity of Protein A and G towards different IgG species is also given.
A general note: Surface plasmon resonance follows binding to a sensor surface in real time, without labels.

The target in assay [2] is T3, Human IgG2 (human, UniProt P01859-1 1-326 = IgG part).
T3 construct: purified IgG of this subclass; also called HuIgG2
T3 sequence (P01859 other isoform, or with tags, fused parts or gaps): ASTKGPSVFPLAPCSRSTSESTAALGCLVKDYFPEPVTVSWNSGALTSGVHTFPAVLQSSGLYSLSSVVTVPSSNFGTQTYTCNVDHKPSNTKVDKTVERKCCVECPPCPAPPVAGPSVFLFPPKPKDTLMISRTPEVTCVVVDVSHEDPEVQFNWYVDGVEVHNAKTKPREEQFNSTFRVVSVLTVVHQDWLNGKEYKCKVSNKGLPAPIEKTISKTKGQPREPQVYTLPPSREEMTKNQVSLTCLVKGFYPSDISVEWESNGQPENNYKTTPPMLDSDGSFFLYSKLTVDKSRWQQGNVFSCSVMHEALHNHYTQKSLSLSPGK
As to the kind of experiment: SPR, IgG-Fc-16 immobilised, IgG 50 µg/ml. Here is the method: as §1

Assay [3] addresses T4, Human IgG3 (human, UniProt P01860-1 1-377).
T4 construct: purified IgG of this subclass; also called HuIgG3
Kind of assay: SPR, IgG-Fc-16 immobilised, IgG 50 µg/ml. Here is the method: as §1

For assay [4], the target named is T5, Human IgG4 (human, UniProt P01861-1 1-327 = IgG part).
T5 construct: purified IgG of this subclass; also called HuIgG4
T5 sequence (P01861 other isoform, or with tags, fused parts or gaps): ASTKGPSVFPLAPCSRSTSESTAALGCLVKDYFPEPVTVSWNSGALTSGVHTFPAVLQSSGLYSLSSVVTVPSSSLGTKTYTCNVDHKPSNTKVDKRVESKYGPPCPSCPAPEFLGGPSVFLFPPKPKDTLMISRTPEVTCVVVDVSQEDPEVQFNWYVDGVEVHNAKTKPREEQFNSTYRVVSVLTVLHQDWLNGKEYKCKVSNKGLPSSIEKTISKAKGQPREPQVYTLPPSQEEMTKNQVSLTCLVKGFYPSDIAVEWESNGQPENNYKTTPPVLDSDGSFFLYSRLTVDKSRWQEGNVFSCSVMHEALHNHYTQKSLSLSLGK
Kind of assay: SPR, IgG-Fc-16 immobilised, IgG 50 µg/ml. Here is the method:
as §1

The next assay deals with T6, Rat IgG1a (rat, UniProt P20759 1-326).
T6 construct: label 'IgG1a' as printed
T6 sequence (P20759 whole entry): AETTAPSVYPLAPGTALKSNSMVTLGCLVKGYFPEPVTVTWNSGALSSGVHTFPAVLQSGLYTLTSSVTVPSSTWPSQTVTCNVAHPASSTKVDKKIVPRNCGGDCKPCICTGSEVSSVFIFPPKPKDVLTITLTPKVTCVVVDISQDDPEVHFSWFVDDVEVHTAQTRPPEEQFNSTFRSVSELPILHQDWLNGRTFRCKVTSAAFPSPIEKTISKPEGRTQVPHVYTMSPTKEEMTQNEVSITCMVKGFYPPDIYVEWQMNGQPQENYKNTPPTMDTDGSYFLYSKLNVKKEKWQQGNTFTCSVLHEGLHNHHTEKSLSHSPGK
Kind of assay: SPR, IgG-Fc-16 immobilised, IgG 50 µg/ml. Here is the method: as §1

The next assay concerns the target Rat IgG2a (rat, UniProt P20760 1-322). As to the kind of experiment: SPR, IgG-Fc-16 immobilised, IgG 50 µg/ml. Here is the method: as §1
In another assay the target is Rat IgG2b (rat, UniProt P20761 1-333). As to the kind of experiment: SPR, IgG-Fc-16 immobilised, IgG 50 µg/ml. Here is the method:
as §1

Another assay concerns the target Rat IgG2c (rat, UniProt P20762 1-329). Kind of assay: SPR, IgG-Fc-16 immobilised, IgG 50 µg/ml. Here is the method: as §1
In a further assay the target is Mouse IgG 1 (mouse, UniProt P01868 1-324 = IgG part). As to the kind of experiment: SPR, IgG-Fc-16 immobilised, IgG 50 µg/ml. Here is the method: as §1
The target in the next assay is Mouse IgG2a (mouse, UniProt P01863 1-330 = IgG part). Kind of assay: SPR, IgG-Fc-16 immobilised, IgG 50 µg/ml. Here is the method:
as §1

The next assay deals with T7, Guinea IgG (guinea pig).
T7 construct: printed 'Guinea IgG'; also called guinea pig IgG
As to the kind of experiment: SPR, IgG-Fc-16 immobilised, IgG 50 µg/ml. Here is the method:
as §1

A further assay deals with Chicken IgG (chicken). As to the kind of experiment: SPR, IgG-Fc-16 immobilised, IgG 50 µg/ml. Here is the method:
as §1

In assay [5] the target is T2, Human IgG1. Kind of assay: SPR, VHH immobilised, IgG as analyte, 1:1 Langmuir. Here is the method: (§2) Binding affinity constants of anti IgG-Fc VHH fragments were determined using surface plasmon resonance analysis (SPR) on a BiaCore 3000. For this purpose, purified VHH fragments were immobilised onto the surface of a CM5 sensor chip and subsequently incubated with different concentrations of purified IgG antibodies in HBS-EP buffer. Binding was allowed for 3 minutes at 30 μl/min followed by a dissociation step of 15 minutes at 30 μl/min. Binding curves were fitted according to a 1:1 Langmuir binding model using Biacore software.

The target of assay [6] is T3, Human IgG2. As to the kind of experiment: SPR, VHH immobilised, IgG as analyte, 1:1 Langmuir. Here is the method: as §2
Assay [7] addresses T4, Human IgG3. Kind of assay: SPR, VHH immobilised, IgG as analyte, 1:1 Langmuir. Here is the method: as §2
For assay [8], the target named is T5, Human IgG4. As to the kind of experiment: SPR, VHH immobilised, IgG as analyte, 1:1 Langmuir. Here is the method: as §2

T2 sequence (P01857 other isoform, or with tags, fused parts or gaps): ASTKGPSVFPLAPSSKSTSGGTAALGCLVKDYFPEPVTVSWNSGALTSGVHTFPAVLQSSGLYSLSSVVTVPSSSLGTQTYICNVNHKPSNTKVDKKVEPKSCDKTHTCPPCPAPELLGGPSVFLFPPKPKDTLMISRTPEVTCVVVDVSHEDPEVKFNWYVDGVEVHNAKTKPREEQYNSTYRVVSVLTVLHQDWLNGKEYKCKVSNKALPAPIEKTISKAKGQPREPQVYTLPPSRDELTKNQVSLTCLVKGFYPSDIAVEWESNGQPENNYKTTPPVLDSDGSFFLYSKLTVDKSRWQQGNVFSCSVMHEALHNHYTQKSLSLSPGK
T4 sequence (P01860 other isoform, or with tags, fused parts or gaps): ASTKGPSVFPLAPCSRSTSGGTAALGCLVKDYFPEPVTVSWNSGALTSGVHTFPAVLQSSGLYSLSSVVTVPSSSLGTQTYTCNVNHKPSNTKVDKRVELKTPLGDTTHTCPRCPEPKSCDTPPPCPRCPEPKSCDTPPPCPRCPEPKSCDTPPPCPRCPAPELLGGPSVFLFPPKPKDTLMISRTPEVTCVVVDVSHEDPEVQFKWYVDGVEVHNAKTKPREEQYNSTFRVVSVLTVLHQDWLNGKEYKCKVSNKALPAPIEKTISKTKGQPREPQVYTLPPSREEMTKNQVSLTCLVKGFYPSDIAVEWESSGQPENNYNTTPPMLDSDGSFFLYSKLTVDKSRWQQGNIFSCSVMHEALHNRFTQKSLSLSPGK
Sequence of Rat IgG2c (P20762 whole entry): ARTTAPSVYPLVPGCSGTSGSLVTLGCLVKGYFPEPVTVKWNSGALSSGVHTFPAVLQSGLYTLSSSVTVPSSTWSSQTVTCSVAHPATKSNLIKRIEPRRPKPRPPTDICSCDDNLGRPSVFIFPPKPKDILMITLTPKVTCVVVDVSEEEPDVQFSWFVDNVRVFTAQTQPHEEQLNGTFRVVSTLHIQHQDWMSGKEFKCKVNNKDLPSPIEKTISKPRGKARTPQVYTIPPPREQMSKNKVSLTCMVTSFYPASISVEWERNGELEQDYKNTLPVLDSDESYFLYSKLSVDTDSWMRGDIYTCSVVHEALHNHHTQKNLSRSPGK
Sequence of Rat IgG2a (P20760 whole entry): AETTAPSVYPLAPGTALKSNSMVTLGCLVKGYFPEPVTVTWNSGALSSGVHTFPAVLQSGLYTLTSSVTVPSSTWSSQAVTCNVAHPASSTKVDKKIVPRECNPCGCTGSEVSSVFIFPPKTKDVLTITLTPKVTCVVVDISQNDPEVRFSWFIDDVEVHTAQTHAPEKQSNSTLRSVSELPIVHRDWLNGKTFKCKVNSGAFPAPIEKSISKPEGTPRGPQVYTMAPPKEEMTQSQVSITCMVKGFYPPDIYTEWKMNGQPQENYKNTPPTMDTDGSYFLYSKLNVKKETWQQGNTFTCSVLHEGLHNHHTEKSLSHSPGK
Sequence of Rat IgG2b (P20761 whole entry): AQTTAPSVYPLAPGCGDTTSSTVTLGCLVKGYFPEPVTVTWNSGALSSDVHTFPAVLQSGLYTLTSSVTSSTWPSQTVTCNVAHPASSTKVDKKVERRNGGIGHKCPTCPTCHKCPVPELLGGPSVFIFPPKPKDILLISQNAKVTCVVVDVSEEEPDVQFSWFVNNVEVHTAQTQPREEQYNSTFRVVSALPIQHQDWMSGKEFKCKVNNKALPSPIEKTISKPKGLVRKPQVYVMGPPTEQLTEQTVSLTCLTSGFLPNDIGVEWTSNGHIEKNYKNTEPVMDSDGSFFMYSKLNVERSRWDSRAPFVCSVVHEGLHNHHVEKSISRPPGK
Sequence of Mouse IgG2a (P01863 whole entry): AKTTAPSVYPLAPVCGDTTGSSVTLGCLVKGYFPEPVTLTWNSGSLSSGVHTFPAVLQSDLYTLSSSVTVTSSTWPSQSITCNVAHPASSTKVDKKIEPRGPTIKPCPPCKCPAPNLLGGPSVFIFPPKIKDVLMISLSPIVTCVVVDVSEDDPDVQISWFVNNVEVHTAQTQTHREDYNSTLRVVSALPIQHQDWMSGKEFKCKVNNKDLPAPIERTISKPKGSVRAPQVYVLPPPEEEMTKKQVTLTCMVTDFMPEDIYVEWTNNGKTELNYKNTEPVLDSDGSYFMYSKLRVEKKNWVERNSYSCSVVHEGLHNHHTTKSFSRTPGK

B1: IgG-Fc-10 (VHH)
VHH: QVQLQESGGGLVQAGDSLRISCRASGLTVNDLYMGWFRQAPGKEREFVGRVTPGDNTDYTYYVDSVKGRFTISRDSAKNTVYLQMNSLKLEDTAVYLCAGRRFGSSEWDYWGQGTQVTVSS
Regarding B1, the Ka with Human IgG, Fc fragment was at least 4e+09 M⁻¹.

B2: IgG-Fc-16 (VHH)
VHH: QVQLQESGGGLVQAGGSLRLSCAASGRAVGNYIIGWFRQAPGKEREFVATTTRDGGSTFYADSVKGRFTISRDNAKNTVNLQMNSLEPEDTAVYYCAAKSWSVPLRPTSADFDSWGQGTQVTVSS
What is called Kd is the free concentration of one partner at which half of the binding sites on the other are occupied at equilibrium, for simple one-to-one binding. The koff is the first-order rate constant of dissociation. Usually kon stands for a measure of how fast the partners come together. Read a low kon as slow association. For the molecule B2, the “Binding signal (RU)” value turned out to be 1570 RU with Human IgG1 [1]; 795 RU in the assay with Human IgG2 [2]; 499 RU with Human IgG3 [3]; 710 RU in the assay with Human IgG4 [4]; 431 RU with Rat IgG1a; 444 RU with Rat IgG2a. Besides, the “Binding signal (RU)” value is 512 RU with Rat IgG2b; 2130 RU in the assay with Rat IgG2c; 1610 RU in the assay with Mouse IgG 1; 427 RU with Mouse IgG2a; 577 RU with Guinea IgG; -3.1 RU with Chicken IgG. Also, the Ka with Human IgG1 [5] worked out at 1.47e+08 M⁻¹; with Human IgG2 [6] it was 6.17e+07 M⁻¹; with Human IgG3 [7], 4.69e+07 M⁻¹; with Human IgG4 [8] it was 5.89e+08 M⁻¹. For the same molecule, the Kd in the assay with Human IgG1 [5] worked out at 6.81 nM; in the assay with Human IgG2 [6], 16.2 nM; with Human IgG3 [7], 21.3 nM; with Human IgG4 [8], 1.7 nM. Besides, the koff with Human IgG1 [5] is 0.000211 s⁻¹; with Human IgG2 [6], 0.000355 s⁻¹; with Human IgG3 [7], 0.000849 s⁻¹; in the assay with Human IgG4 [8], 0.000107 s⁻¹. Moreover, the kon amounted to 31000 M⁻¹ s⁻¹ in the assay with Human IgG1 [5], 21900 M⁻¹ s⁻¹ in the assay with Human IgG2 [6], 39800 M⁻¹ s⁻¹ with Human IgG3 [7] and 62900 M⁻¹ s⁻¹ in the assay with Human IgG4 [8].

B3: IgG-Fc-01 (VHH)
VHH: QVQLQESGGGLVQPGGSLRLSCAASGGTSIRIGSINALAWYRQALGNQRELVAAVTEGGSTNYADFVKGRFTISRDNAQNMMYLQMNSLKPEDTAVYYCNADKVLYSRGGYYSVANDLWGQGTQVTVSS
notes: also called IgG-Fc-1
For B3, the Ka with Human IgG1 [5] stood at 1.74e+09 M⁻¹; with Human IgG2 [6], 5.76e+08 M⁻¹; with Human IgG3 [7] it was 2.09e+07 M⁻¹; in the assay with Human IgG4 [8] it was 3.32e+09 M⁻¹. Moreover, the Kd with Human IgG1 [5] turned out to be 0.575 nM; with Human IgG2 [6], 1.73 nM; with Human IgG3 [7], 47.8 nM; with Human IgG4 [8], 0.302 nM. Moreover, the koff with Human IgG1 [5] was 0.000208 s⁻¹; with Human IgG2 [6], 0.000212 s⁻¹; with Human IgG3 [7] it was 0.000272 s⁻¹; in the assay with Human IgG4 [8] it was 5.91e-05 s⁻¹. In addition, the kon in the assay with Human IgG1 [5] is 361000 M⁻¹ s⁻¹; in the assay with Human IgG2 [6], 122000 M⁻¹ s⁻¹; in the assay with Human IgG3 [7], 5690 M⁻¹ s⁻¹; with Human IgG4 [8], 196000 M⁻¹ s⁻¹.

Source of the values: patent publication US20190177434A1 (published 2019).
